Publication doi:10.1101/2024.12.02.626348 (bioRxiv, 2024)

B1: GST-Arl4D (natural protein, human, UniProt P49703 1-201, looked up)
chain: MGNHLTEMAPTASSFLPHFQALHVVVIGLDSAGKTSLLYRLKFKEFVQSVPTKGFNTEKIRVPLGGSRGITFQVWDVGGQEKLRPLWRSYTRRTDGLVFVVDAAEAERLEEAKVELHRISRASDNQGVPVLVLANKQDQPGALSAAEVEKRLAVRELAAATLTHVQGCSAVDGLGLQQGLERLYEMILKRKKAARGGKKRR
B2: His-Arl4D (natural protein, human, UniProt P49703 1-201, looked up)
chain: MGNHLTEMAPTASSFLPHFQALHVVVIGLDSAGKTSLLYRLKFKEFVQSVPTKGFNTEKIRVPLGGSRGITFQVWDVGGQEKLRPLWRSYTRRTDGLVFVVDAAEAERLEEAKVELHRISRASDNQGVPVLVLANKQDQPGALSAAEVEKRLAVRELAAATLTHVQGCSAVDGLGLQQGLERLYEMILKRKKAARGGKKRR

Key:
Test in all cases: pull-down
His-Erk1 = His-Erk1 (human, UniProt P27361 1-379)
Chain of His-Erk1 (P27361 whole entry): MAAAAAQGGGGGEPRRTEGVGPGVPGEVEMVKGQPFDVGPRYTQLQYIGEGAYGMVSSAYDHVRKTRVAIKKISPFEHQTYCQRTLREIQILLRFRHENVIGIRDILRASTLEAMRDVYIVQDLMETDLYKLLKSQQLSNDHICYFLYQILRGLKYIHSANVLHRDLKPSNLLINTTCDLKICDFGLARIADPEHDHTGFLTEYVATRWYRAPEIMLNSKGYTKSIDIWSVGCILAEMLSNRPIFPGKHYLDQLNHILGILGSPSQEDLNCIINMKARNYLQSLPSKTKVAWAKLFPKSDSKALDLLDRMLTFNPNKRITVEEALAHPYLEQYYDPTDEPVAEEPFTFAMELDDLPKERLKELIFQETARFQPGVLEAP

GST-Erk1 = GST-Erk1 (human, UniProt P27361 1-379)
Chain of GST-Erk1 (P27361 whole entry): as above

GST-Erk2 = GST-Erk2 (human, UniProt P28482 1-360)
Chain of GST-Erk2 (P28482 whole entry): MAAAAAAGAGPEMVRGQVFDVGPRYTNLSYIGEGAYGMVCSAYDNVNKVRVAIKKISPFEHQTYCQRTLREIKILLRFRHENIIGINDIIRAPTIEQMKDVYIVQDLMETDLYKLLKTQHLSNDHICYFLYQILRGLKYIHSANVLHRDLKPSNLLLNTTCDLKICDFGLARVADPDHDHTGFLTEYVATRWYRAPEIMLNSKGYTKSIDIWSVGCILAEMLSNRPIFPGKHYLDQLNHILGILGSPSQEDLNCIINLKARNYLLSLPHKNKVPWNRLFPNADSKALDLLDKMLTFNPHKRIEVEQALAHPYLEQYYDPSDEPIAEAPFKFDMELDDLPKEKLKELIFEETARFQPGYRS

Row | Binder | binding result (His-Erk1) | binding result (GST-Erk1) | binding result (GST-Erk2)
1 | B1 | binds | – | –
2 | B2 | – | binds | binds
